# Measurements from the RNAGym collection of RNA variant scans (doi:10.1073/pnas.2313332121).
# B1: TPR t1 (parent)
# chain: GACCAAUCUGCCCUCAGAGCUCGAGAACAUCUUCGGAUGCAGAGGAGGCAGGCUUCGGUGGCGCGAUAGCGCCAACGUCCUCAACCUCCAAUGCAUCCCACCACAUGAUGAUGCCUGAAGAGCCUUGGUUUUUUG
# Variants of: B1
# Experiment: polymerase ribozyme fitness, log enrichment relative to wild type (log ratio); higher = more active; in vitro selection for triplet polymerase activity
# How it was run: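 Each subunit of a heterodimeric triplet polymerase ribozyme was mutagenized into a library by PCR, transcribed, and subjected to one round of in vitro selection, run in triplicate. Libraries were annealed with a biotinylated primer, the partner subunit and triplets, incubated frozen at −7 °C, and extended constructs were gel-excised, captured on streptavidin beads and recovered by RT-PCR. Input and output libraries were sequenced on Illumina, keeping genotypes with ≥10 input reads and ≥1 read per output. Fitness is log base 2 of genotype enrichment divided by wild-type enrichment, from inverse-variance-weighted replicate averages.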
row,Variant,polymerase ribozyme fitness (log ratio)
1,GACCAAUCUGUCCUCAGAGCUCGAGAACAUCUUCGGAUGCAGAGGUCGCAGUCUCCGGUGGCGCGAUAGCGCCAACGUCCUCAACCUCCAAUGCAUCCCACCACAUGAUGAUGCCUUAAGAGCCUUGGUUUUUUG,-6.86
2,GACCAAUCUGUCCUAAGAGCUCGAGGACAUCUUCGGAUGCAGAGGAGGCAGGGUUCGGUGUCGCGAUAGCGCCAACGUCCUCAACCUCCAAUGCAUCCCACCACAUGAUGAUGCCUGAACAGCCUUGGUUUUUUG,-4.04
3,GACCAAUCUGUCCUCAGAGCUCGAGAACAUCUUCGGAUGCAGAGGGGGCAUGCUUCGGUGGCGCGAUAGCGCCAACGUCUUCAACCUCCAAUGCAUCCCACCACAUGAUGAUGCCUGAAGAGCCUUGGUUUUUUG,-1.92
4,GACCAAUCUGUGCUCAGAGCUCGAGAACAUCUUCGGAUGCAGAGGAGGCAGGCUUAGGUGGCGCGAUAGCGCCAACGUCCUCAACCUUCAAUGCAUCCCACCACAUGAUGAUGCCUGAAGAGCCUUGGUUUUUUG,-1.97
5,GACCAAUCUGUCCUCAGAGUUCGAGAACAUCUUCGGAUGCAGAGGAGGCAGGCUUAGGUGGCGCGAUAGCGCCAACGUCCUCAACCUUCAAUGCAUCCCACCACAUGAUGAUGUCUGAAGAGCCUUGGUUGUUUG,-0.397
6,GACCAAUCUGUCCUCAGAGCUCGAGAACAUCUUCGGAUGCAGAGGAGGCAGGCUUCGGUGGCGCGAUAGCGCCAACGUCCUCUACCUCCAAUGCAUCCCAGCACAUGAUGAUGCCUGAAGAGCCUUGGUUUUUUG,-2.28
7,GACCAAUCUGUCCUCAGAGCUCGAGAACAUCUUCGGAUGCAGAGGAGGCAGGCUUCGGUGGCGCGAUAGCGCCAACGUCCUCACCCUCCAAGGCAUCCCACCACAUGAUGAUGCCUGAAGAGCCUUGGUUUUUUG,-3.8
8,GACCAAUCUGUCCUCAGAGCUCGAGAACAUCUUCGGAUGCAGAGGAGGCAGGCUUCGGUGGCGCGAUAGCGCCAACGUCCUCAACCUCCGAUGCAUGCCACCACAUGAUGAUGCCUGAAGAGCCUUGGCUUUUUG,-5.59
9,GACCAAUCUGUCCUAAGAGCUCGAGAACAUCUUCGGAUGCAGAGGAGGCAGGCUUCGGUGGCGUGAUAGCGCCAACGUCCUCAUCCUCCAAUGCAUCCCACCACAUGAUGAUGCCUGAAGAGCCUUGGUUUUUUG,-2.56
10,GACCAAUCUGUCGUCAGAGCUCGAGAACAGCUUCGGAUGCAGAGGAGGCAGGCUACGGUGGCGCGAUAGUGCCAACGUCCUCAACCUCCAAUGCAUCCCACCACAUGUUGAUGCCUGAAGAGCCUUGGUUUUUUG,-3.69
11,GACCAAUCUGUCCUCAGAGCUCGAGAACAUCUUCGGAUGCAGAGGAGGCAGGCUUCGGUGGCGCGAUAGCGCCAACGUCCUCAACCUCCAAUGCAUCCCACCACAUGAUGAUGCCUGAAGCGCCUUGGUUUUUUG,1.76
12,GACCAAUCUGUCCUCAGAGCUCGAGAACAUCUUCGGAUGCAGAGGAGGCAGGCUUCGGUGGCGCGAUAGCGCCAACGUCCUCCACCUCCAAUACAUCCCACCACAUGAUGAUGCCUGAAAAGCCUUGGUUCUUUG,0.209
13,GACCAAUCUGUCCUCAGAGCUCGAGAACAUCUUCGGAUGCAGAGGAGGCAGGCUUCGGUGGCGCGCUAGCGCCAACGUCCUCAACCUCCAAUGCAUCCCACCACAUGAUGAUGCCUGAAGAGCCUUGGUUUUUUG,-1.81
14,GACCAAUCUGUCAUCAGAGCUUGAGAACAUCUUCGGAUGCAGAGGAGGCAGGCUGCGGUGGCGCGAUAGCGCCAACGUCCUCAACCUCCAAUGCAUCCCACCACAUGAUGAUGCCUGAAGAGCCUUGGUUUUUUG,-4.69
15,GACCAAUCUGUCCUCAGAGCUAGAGAACAUCUUCGGAUGCAGAGGAGGCAGGCUUCGGUGGCGCGAUAGCGCAAACGUCCUCUACCUCCAAUGCAUCCCACCACAUGAUGAUGCCUGAAGAGCCUUGGUUUUUUG,-5.9
16,GACCAAUCUGUCCUCAGAGCUCGAGAACAUCUUCGGAUGCAGAGGAGGCUGGCUUCAGUGGCGCGAUAGCGCCAACGUCCUCAACCUCCAAUGCAUCCCACCACAUGAUGAUGCCUGAAGAGCCUUGGUUUUUUG,-1.89
17,GACCAAUCUGUCCUCAGAGCUUGAGAACAUCUUCGGAUGGAGAGGAGGCAGGCUUCGGUGGCGCGAUAGCGCCAACGUCCUCAACCUCCAAUGCAUCCCACCACAUGAUGAUGCCUGAAGAGCCUUGGUUUUUUG,-4.75
18,GACCAAUCUGUCCUCAGAGCUCGAGAACAUCUUCGGAUGCAGAGGAGGCAGGCUUCGGUGGCGCGAUAGCGCCAACGUCCUCAACCUCCAAUGCAUCCCACCACAUGGUGAUGCCUGUAGAGCCUUGGUUUUUUG,-3.04
19,GACCAAUCUGUCCUCAGAGCUCGAGAACAUCUUCGGAUGCAGAGGAGGCAGGCUUCGGUGGCGCGAUAGCGCCAGCGUCCUCAACCUCCAAUGCAUCCCACCACAUGAUGAUGCCUGAAGAGCCUUGGUUUUUUG,-0.146
20,GACCAAUCUGUCCUAAGAGCUCGAGAACAUCUUCGGAUGCAGAGGAGGAAGGCUUCGGUGGCGCGAUAGCGCGAACGUCCUCAAACUCCAAUGCAUCCCACCACAUGAUGAUGCCUGAAAAGCCUUGGUUUUUUG,-4.65
21,GACCAAUCUGUCCUCAGAGAUCGAGAACAUCUUCGGAUGCAGAGGAGGCAGGCUUCGGUGUCGCGAUAGCGCCAACGUCCUCAACCUCCAAUGCAUCCCACCACAUGAUGAUGCCUGAAGAGCCUUGGUUUUGUG,-2.19

row,Variant,polymerase ribozyme fitness (log ratio)
1,GACCAAUCUGUCCUCAGAGUUAGAGAACAUCUUCGGAUGCAGAGGAGGCAGGCUUCGGUGGCGCGAUAGCGCCAACGUCCUCAACCUCCAUUGCAUCCCACCACAUGAUGAUACCUGAAGAGCCUUGGUUUUUUG,-4.25
2,GACCAAUCUGUCCUAAGAGCUCGAGAACCUCUUAGGAUGCAGAGGAGGCAGGCUUCGGUGGCGCGAUAGCUCCAACGUUCUCAACCUCCAAUGCAUCCCACCAAAUGAUGAUGCCUUAAGAGCCUUGGUUUUUUG,-6.92
3,GACCAAUCUGUCCUCAGAGCUCGAGAACAUCUUCGGAUGCAGAGGAGGCAGGCUUCGGUGGCGCGAUAGCGCCAACGUCCUCAUCCUCUAAUGCAUCCCACCACAUGAUGAUGCCUGAAGAGCCUUGGUUUUUUG,-1.61
4,GACCAAUCUGUCCUGAGAGCUCGAGAACAUCUUCGGAUGCAGAGGAGGCAGGCUUCGGCGGCGCGAUAGCGCCAACGUCCUCAACCUCCAAUGCAUCCCACCACAUGAUGAAGCCUGAAGAGCCUUGGUUUUUUG,-4.15
5,GACCAAUCUGUCCUCAGAGUUCGAGAUCAUCUUCGGAUGCAGAGGAGGCAGGCUUCGGUGGCGCGAUAGCGCCAACGUCCUCAACCUCCAAUGCAUCCCACCACAUGAUGAUGCCUGAAGAGCCUUGGUUUUUUG,-5.92
6,GACCAAUCUGUCGUCAGAGCUCGAGAACAUCUUCGGAUGCAGAGGAGGCAGGCUUCGGUGGCGCGAUAGCGCCAACGUCCUCAACCUCCAAUGCAUCCCACCACAUGAUGAUGACUGAAGAGCCUUGGUUUUUUG,-4.11
7,GACCAAUCUGUCGUCAGAGCUCGGGAACAUCUUCGGAUGCAGAGGACGAAGGCUUCGGUGGCGCGAUAGCGCCAACGUCCUCAACCUGCAAUGUAUCCCACCACAUGUUGAUGUCUGAAGAGCCUUGGUUUUUUG,-6.99
8,GACCAAUCUGUCCUCAGAGCUCGAGAACAUCUUCGGAUGCAGAGGAGGCAGGCUUCGGUGGCGCGGUAGCGCCAACGUCCUCAACCGCCAAUGCAUCCCACCACAUGAUGAUUCCUGAAGAGCCUUGGUUUUUUG,-5.47
9,GACCAAUCUGUCCUCAGAGCUGGAGAACAUCUUCGGAUGUAGAGGAGGCAGGCUUCGGUGGCGCGAUAGCGCCAACGUCCUCAACCUCCAAUGCAUCCCACCACAGGAUGAUGCCUGAAGAGCCUUGGUUUUUUG,-4.43
10,GACCAAUCUGUCCUAAGAGCUCGAGAACAUCUUCGGAUGCAGAGGAGGCAGGCUUGGGUGGCGCGAUAUCGCCAACGUCCUCAACCUCCAAUGCAUCCCACCACAUGAUGAUGCCUGAAGAGCCUUGGUUUUUUG,-2.64
11,GACCAAUCUGUCCUCAGAGCUCGAGAACAUCUUCGGAUGCAGUGGAGGCAGGCUUCGGUGGCGCGAUAGCGCCAACGUCCUCAACCUCCAAUGCAUCCCACCACAUGAUUAUGCCUGAAGAGCCUUGGUUUAUUG,-3.03
12,GACCAAUCUGUCCUCAGAGAUCGAGAACAUCUUCGGUUGCAGAGGAGGCAGGCUUCGGUGACGCGAUAGCGCCAACGUCCUCCACCUCCAAUGCAUAUCACCACAUGAUGACGCCUGAAGAGCCUUGGUUUUUUG,-7.47
13,GACCAAUCUGUUCUCAGAGCUCGAGAACUUCUUCGGAUGCAGAGGAGGCAGGCUUCGGUGGCGCGAUAGCGCCAACGUCCUCAACCUCCAAUGCAUCCCACCACAUGAUUAUGCCUGAAGACACUUGGUUUUUUG,-0.893
14,GACCAAUCUGUCUUCAGAGCUCGAGAACAUCUUCGGAUGCAGAGGAGGCAGGCUUCGGUGGCGCGAUAGCGCCAACGUCCUCCACCUCCAAUGCAUACCACCACAUGAUGAUGCCUGAAGAGCCUUGGUUUUUUG,-4.34
15,GACCAAUCUGUCCUCAGAGCUGGAGAACAUCUUCGGAUGCAGAGGAGGCAGGCUUCGGUGGCGCGAUAGCGCCAACGUCCUCCACCUCCAAUGCAUCCCACCACAUGAUGAUGCCUGAAGAGCCUUGGUUUUUUG,-4.06
16,GACCAAUCUGUCCUCAGAGCUCGAGAACAUCUUCGGAUGCAGAGGAGGCAGGCUUCGGUGGCGCGAUAGCGCCUACGUCCUCAACCUCCAAUGCAUCCCACCACAUGAUGAUACCUGAAGAGCCUUGGUUUUUUG,-2.56
17,GACCAAUCUGUCCUCAGAGCUCGAGAACAUCUUCGGAUGCAGAGGAGGCAGGCUUCGGUGGCGCGAUAGCGCCAACGUCCUCGACCUCCAAUGCAUCCCACCACAUGAUGAUGCCUGAAGAGCCUUGGUUUUUUG,-1.21
18,GACCAAUCUGUCCUCAGAGCUGGAGCACAUCUUCGGAUGCAGAGGAGGCAGGCUUCGGUGGCGUGAUAGCGCCAACGUCCUCAACCUCCAAUGCAUCCCACCACAUGAUGAUGCCUGAAGAGCCUUGGUUUUUUG,-4.03
19,GACCAAUCUGUCUUCAGAGGUCGAGAACAUCUUCGGAUGCAGAGGAGGCAGGCUUCGGUGGCGCGAUAGCGCCAACGUCCUCAACCUCCAAUGCAUCCCACCACAUAAUGAUGCCUUAAUAGCCUUGGUUUUUUG,-3.09
20,GACCAAUCUGUCCUUAGAGCUCGAGAACAUCUUCGGAUGCAGAGGAGGCAGGCUUUGGUGGCGCGAUAGCGUCAACGUCCUCAACCUCCAAUGCAUCCCACCACAUGAUGAUGCCUGAAGAGCCUUGGUUUUUUG,-1.82
21,GACCAAUCUGUCGUCAGAGCUCGAGAACAUCUUCGGAUGCAGAGGAGGCAGGCUUCGGUGGCGCGCUAGCGCCAAGGUCCUCAACCUCCAAUGCAUCCCACCACAUGAUGAUGCCUGUAGAGCAUUGGUUUUAUG,-0.556
